Changes are numbered by the printed parent chain. Numbers in names are those of the source. Values belong to the binder of their own block, whether it stands above or below them.
Assays:
[1] = target: T1, recombinant human IL-6 (human, UniProt P05231 30-212); test: SPR (Biacore), purified IgG on Protein A, 37 C
T1 construct: Flowed in solution over the captured antibodies
Method: (§1) Antibodies were captured on a Protein A chip (GE) by injecting 1:20 dilution of cell supernatant at 10 μL/min for 60 seconds. […] The sensor chip was regenerated by a 60 seconds injection of 10 mM Glycine pH 1.7 at flow rate of 50 μL/min. […] For this setup, 1 μg/mL of purified antibody was injected over a Protein A chip at 10 μL/min for 25-28 seconds. Data analysis for supernatant and purified samples were performed using BIAevaluation software (GE). All sensorgrams were double reference subtracted and fit using a 1:1 Langmuir binding model.
T1 sequence (P05231 30-212 limits assumed): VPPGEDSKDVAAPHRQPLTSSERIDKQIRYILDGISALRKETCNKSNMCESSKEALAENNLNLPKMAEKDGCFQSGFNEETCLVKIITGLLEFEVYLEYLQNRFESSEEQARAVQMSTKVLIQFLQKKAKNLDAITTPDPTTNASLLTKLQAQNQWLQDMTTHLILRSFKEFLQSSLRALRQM

[2] = target: T1, recombinant human IL-6; test: SPR (Biacore), supernatant IgG on Protein A, 25 C
[3] = target: T2, recombinant human IL-6 (human, UniProt P05231 30-212); test: SPR Biacore, purified Ab on Protein A chip, IL-6 analyte, 37 C
T2 construct: Bought protein
Method: as §1
T2 sequence (P05231 30-212 limits assumed): as above

[4] = target: T2, recombinant human IL-6; test: SPR Biacore, supernatant Ab on Protein A chip, IL-6 analyte, 25 C
Method: as §1

B1: anti-IL-6 antibody, parent sequence (heavy chain WT, light chain WT) (antibody, V domains shown)
VH: EVQLVESGGGLVQPGGSLRLSCAASGFTFSPFAMSWVRQAPGKGLEWVAKISPGGSWTYYSDTVTGRFTFSLDTSKSTAYLQMNSLRAEDTAVYYCARQLWGYYALDIWGQGTLVTVSS
VL: DIQLTQSPSSLSASVGDRVTITCSASISVSYMYWYQQKPGKAPKLLIYDMSNLASGVPSRFSGSGSGTDFTLTISSLQPEDFATYYCMQWSGYPYTFGQGTKVEIK
notes: Tested as full antibody from Expi293 cells in an engineered human IgG1 framework (L234A, L235A, G237A, L443C, EU); also called wild-type; parent molecule
Kd [1]: 0.158 nM | koff [1]: 0.000139 s⁻¹ | kon [1]: 880000 M⁻¹ s⁻¹ | Kd [2]: 0.399 nM | koff [2]: 0.000126 s⁻¹ | kon [2]: 315000 M⁻¹ s⁻¹

B2: anti-IL-6 antibody, light chain M32L (heavy chain WT) (antibody, V domains shown)
VH: B1 VH
VL: B1 VL with M32L
notes: See note of m2; also called WT / M32L
Kd [3]: 0.395 nM | koff [3]: 0.00035 s⁻¹ | kon [3]: 885000 M⁻¹ s⁻¹ | Kd [4]: 0.199 nM | koff [4]: 0.000118 s⁻¹ | kon [4]: 591000 M⁻¹ s⁻¹

B3: anti-IL-6 antibody, heavy chain D62Q, light chain WT (antibody, IgG1, V domains shown)
VH: B1 VH with D62Q
VL: B1 VL
notes: Full IgG1 tested; V domains derived as in m2
Kd [1]: 0.687 nM | koff [1]: 0.000601 s⁻¹ | kon [1]: 875000 M⁻¹ s⁻¹ | Kd [2]: 0.366 nM | koff [2]: 0.000148 s⁻¹ | kon [2]: 403000 M⁻¹ s⁻¹

B9: anti-IL-6 antibody, heavy chain G26R, light chain WT (antibody, IgG1, V domains shown)
VH: B1 VH with G26R
VL: B1 VL
notes: as for B3
Kd [1]: 0.465 nM | koff [1]: 0.000326 s⁻¹ | kon [1]: 702000 M⁻¹ s⁻¹ | Kd [2]: 0.302 nM | koff [2]: 0.000121 s⁻¹ | kon [2]: 402000 M⁻¹ s⁻¹

B12: anti-IL-6 antibody, heavy chain G66E, light chain WT (antibody, IgG1, V domains shown)
VH: B1 VH with G66E
VL: B1 VL
notes: as for B3
Kd [1]: 0.0895 nM | koff [1]: 0.000171 s⁻¹ | kon [1]: 1.91e+06 M⁻¹ s⁻¹ | Kd [2]: 0.107 nM | koff [2]: 0.00011 s⁻¹ | kon [2]: 1.02e+06 M⁻¹ s⁻¹

B14: anti-IL-6 antibody, heavy chain F32G, light chain WT (antibody, IgG1, V domains shown)
VH: B1 VH with F32G
VL: B1 VL
notes: as for B3
Kd [1]: 0.569 nM | koff [1]: 0.00037 s⁻¹ | kon [1]: 650000 M⁻¹ s⁻¹ | Kd [2]: 0.318 nM | koff [2]: 0.000133 s⁻¹ | kon [2]: 418000 M⁻¹ s⁻¹

Continued, values first:

Kd [1]: 0.719 nM | koff [1]: 0.000764 s⁻¹ | kon [1]: 1.06e+06 M⁻¹ s⁻¹ | Kd [2]: 0.33 nM | koff [2]: 0.000161 s⁻¹ | kon [2]: 487000 M⁻¹ s⁻¹
B4: anti-IL-6 antibody, heavy chain WT, light chain I27W (antibody, IgG1, V domains shown)
VH: B1 VH
VL: B1 VL with I27W
notes: as for B3

Kd [1]: 0.553 nM | koff [1]: 0.000449 s⁻¹ | kon [1]: 811000 M⁻¹ s⁻¹ | Kd [2]: 0.332 nM | koff [2]: 0.000145 s⁻¹ | kon [2]: 437000 M⁻¹ s⁻¹
B5: anti-IL-6 antibody, heavy chain WT, light chain I27L (antibody, IgG1, V domains shown)
VH: B1 VH
VL: B1 VL with I27L
notes: as for B3

Kd [1]: 0.394 nM | koff [1]: 0.000236 s⁻¹ | kon [1]: 599000 M⁻¹ s⁻¹ | Kd [2]: 0.39 nM | koff [2]: 0.000115 s⁻¹ | kon [2]: 296000 M⁻¹ s⁻¹
B6: anti-IL-6 antibody, heavy chain M34W, light chain WT (antibody, IgG1, V domains shown)
VH: B1 VH with M34W
VL: B1 VL
notes: Full IgG1 tested; VL as in m2

Kd [4]: 0.383 nM | koff [4]: 0.000338 s⁻¹ | kon [4]: 882000 M⁻¹ s⁻¹
B7: anti-IL-6 antibody, light chain Y95G (heavy chain WT) (antibody, V domains shown)
VH: B1 VH
VL: B1 VL with Y95G
notes: See note of m2; also called WT / Y95G

Kd [4]: 0.356 nM | koff [4]: 0.000123 s⁻¹ | kon [4]: 345000 M⁻¹ s⁻¹
B8: anti-IL-6 antibody, light chain Y48W (heavy chain WT) (antibody, V domains shown)
VH: B1 VH
VL: B1 VL with Y48W
notes: See note of m2; also called WT / Y48W

Kd [1]: 0.505 nM | koff [1]: 0.000343 s⁻¹ | kon [1]: 679000 M⁻¹ s⁻¹ | Kd [2]: 0.165 nM | koff [2]: 7.6e-05 s⁻¹ | kon [2]: 462000 M⁻¹ s⁻¹
B10: anti-IL-6 antibody, heavy chain I51R, light chain WT (antibody, IgG1, V domains shown)
VH: B1 VH with I51R
VL: B1 VL
notes: as for B3

Kd [1]: 0.391 nM | koff [1]: 0.000336 s⁻¹ | kon [1]: 858000 M⁻¹ s⁻¹ | Kd [2]: 0.256 nM | koff [2]: 0.000141 s⁻¹ | kon [2]: 554000 M⁻¹ s⁻¹
B11: anti-IL-6 antibody, heavy chain I108S, light chain WT (antibody, IgG1, V domains shown)
VH: B1 VH with I108S
VL: B1 VL
notes: as for B3

Kd [1]: 0.438 nM | koff [1]: 0.000342 s⁻¹ | kon [1]: 782000 M⁻¹ s⁻¹ | Kd [2]: 0.197 nM | koff [2]: 0.000105 s⁻¹ | kon [2]: 535000 M⁻¹ s⁻¹
B13: anti-IL-6 antibody, heavy chain WT, light chain A25S (antibody, IgG1, V domains shown)
VH: B1 VH
VL: B1 VL with A25S
notes: as for B3
